These results are taken from US20160030544A1 (published 2016).

The target of this test is fHbp v2.22 WT. In words: SPR. Background: In SPR one partner is held on a chip, and binding of the other changes the refractive index at the surface.

B1: fH6-7 (other)
chain: TLKPCDYPDIKHGGLYHENMRRPYFPVAVGKYYSYYCDEHFETPSGSYWDHIHCTQDGWSPAVPCLRKCYFPYLENGYNQNYGRKFVQGKSIDVACHPGYALPKAQTTVTCMENGWSPTPRCI
One may read the Kd as the concentration at which binding is half-saturated. In turn, B1 showed a dissociation constant (Kd) of 0.3 nM.
